Substitutions are numbered along the chain they refer to. Read-outs that look alike come from different tables or passages of the source. Blank lines part the entries; values can stand above or below the binder they belong to.
Assays:
Experiment in all cases: cell-based or functional assay
[1] = biological target: T1, recombinant human TFPI (tissue factor pathway inhibitor) (human, UniProt P10646 29-304)
[2] = biological target: T1, recombinant human TFPI (tissue factor …); remark: listed apart in the source
[3] = biological target: T1, recombinant human TFPI (tissue factor …); remark: listed apart in the source
[4] = biological target: T1, recombinant human TFPI (tissue factor …); remark: listed apart in the source
[5] = biological target: T1, recombinant human TFPI (tissue factor …); remark: listed apart in the source
[6] = biological target: T1, recombinant human TFPI (tissue factor …); remark: listed apart in the source
[7] = biological target: T1, recombinant human TFPI (tissue factor …); remark: listed apart in the source
[8] = biological target: T1, recombinant human TFPI (tissue factor …); remark: listed apart in the source

effect of inhibiting TFPI, FXa activity assay, Ab 10 nM [1]: ~81%
effect of inhibiting TFPI, FXa activity assay, Ab 20 nM [1]: ~89%
FXa assay % of FXa alone, 2.5 nM Ab, 10 nM TFPI [2]: 7%
FXa assay % of FXa alone, 5 nM Ab, 10 nM TFPI [2]: 29.6%
FXa assay OD, 2.5 nM Ab, 10 nM TFPI [2]: 0.0575
FXa assay OD, 5 nM Ab, 10 nM TFPI [2]: 0.244
FXa assay OD, 10 nM Ab, 10 nM TFPI [2]: 0.672
FXa assay OD, 20 nM Ab, 10 nM TFPI [2]: 0.734
B1: clone 11 (antibody, V domains shown)
VH: EVQLVESGGGLVKPGGSLRLSCAASGFTFSSYAMNWVRQAPGKGLEWVGTITTGGSYTYYADSVEGRFTISRDNAKNSLYLQMNSLRAEDTAVYYCARQDGNFLMDYWGQGTLVTVSS
VL: DVVMTQTPLSLPVTLGQPASISCKSSPSLLDIDGKTYLNWLQQRPGQSPKRLIYLVSKLDSGVPDRFTGSGSGTDFTLKISRVEAEDVGVYYCWQGTHFPFTFGQGTKVEIKR

FXa assay % of FXa alone, 2.5 nM Ab, 10 nM TFPI [3]: 5%
FXa assay % of FXa alone, 20 nM Ab, 10 nM TFPI [3]: 4%
B2: clone A24 (antibody, V domains shown)
VH: B1 VH with S30H, G49S, G54R
VL: B1 VL with P27Q, I32V

% of Normalized, TF/FVIIa/FX complex assay, Ab 1.56 nM [4]: 14.5%
% of Normalized, TF/FVIIa/FX complex assay, Ab 3.13 nM [4]: 15%
% of Normalized, TF/FVIIa/FX complex assay, Ab 6.25 nM [4]: 16.3%
% of Normalized, TF/FVIIa/FX complex assay, Ab 12.5 nM [4]: 19.7%
% of Normalized, TF/FVIIa/FX complex assay, Ab 25 nM [4]: 33.4%
% of Normalized, TF/FVIIa/FX complex assay, Ab 50 nM [4]: 100%
% of Normalized, TF/FVIIa/FX complex assay, Ab 100 nM [4]: 103%
A405, TF/FVIIa/FX complex assay, Ab 1.56 nM [5]: 0.134
A405, TF/FVIIa/FX complex assay, Ab 3.13 nM [5]: 0.138
A405, TF/FVIIa/FX complex assay, Ab 6.25 nM [5]: 0.15
A405, TF/FVIIa/FX complex assay, Ab 12.5 nM [5]: 0.181
A405, TF/FVIIa/FX complex assay, Ab 25 nM [5]: 0.307
A405, TF/FVIIa/FX complex assay, Ab 50 nM [5]: 0.919
A405, TF/FVIIa/FX complex assay, Ab 100 nM [5]: 0.943
effect of inhibiting TFPI, FXa activity assay, Ab 10 nM [1]: ~70%
effect of inhibiting TFPI, FXa activity assay, Ab 20 nM [1]: ~90%
FXa assay % of FXa alone, 2.5 nM Ab, 10 nM TFPI [6]: 6%
FXa assay % of FXa alone, 5 nM Ab, 10 nM TFPI [6]: 10.6%
FXa assay OD, 2.5 nM Ab, 10 nM TFPI [6]: 0.046
FXa assay OD, 5 nM Ab, 10 nM TFPI [6]: 0.0815
FXa assay OD, 10 nM Ab, 10 nM TFPI [6]: 0.54
FXa assay OD, 20 nM Ab, 10 nM TFPI [6]: 0.696
B3: clone 4017 (antibody, V domains shown)
VH: B1 VH with E65Q, N102Y
VL: B1 VL with P27Q

FXa assay % of FXa alone, 2.5 nM Ab, 10 nM TFPI [7]: 6.9%
FXa assay % of FXa alone, 5 nM Ab, 10 nM TFPI [7]: 23.2%
FXa assay OD, 2.5 nM Ab, 10 nM TFPI [7]: 0.06
FXa assay OD, 5 nM Ab, 10 nM TFPI [7]: 0.202
FXa assay OD, 10 nM Ab, 10 nM TFPI [7]: 0.545
FXa assay OD, 20 nM Ab, 10 nM TFPI [7]: 0.672
effect of inhibiting TFPI, FXa activity assay, Ab 10 nM [1]: ~63%
effect of inhibiting TFPI, FXa activity assay, Ab 20 nM [1]: ~77%
B4: clone 1214 (antibody, V domains shown)
VH: B1 VH with G49S
VL: B1 VL with P27Q, I32V

FXa assay % of FXa alone, 2.5 nM Ab, 10 nM TFPI [3]: 5.6%
FXa assay % of FXa alone, 10 nM Ab, 10 nM TFPI [3]: 5.3%
B5: clone A25 (antibody, V domains shown)
VH: B1 VH with G49S, Y57H
VL: B1 VL with P27Q, I32R

FXa assay % of FXa alone, 2.5 nM Ab, 10 nM TFPI [3]: 4.8%
FXa assay % of FXa alone, 5 nM Ab, 10 nM TFPI [3]: 5.3%
FXa assay % of FXa alone, 10 nM Ab, 10 nM TFPI [3]: 4.5%
FXa assay % of FXa alone, 20 nM Ab, 10 nM TFPI [3]: 5.6%
B6: clone A63 (antibody, V domains shown)
VH: B1 VH with G49S, E65Q
VL: B1 VL with P27Q, I32V

FXa assay % of FXa alone, 2.5 nM Ab, 10 nM TFPI [8]: 3.6%
FXa assay % of FXa alone, 5 nM Ab, 10 nM TFPI [8]: 4.2%
FXa assay % of FXa alone, 10 nM Ab, 10 nM TFPI [8]: 6.6%
FXa assay % of FXa alone, 20 nM Ab, 10 nM TFPI [8]: 32.5%
FXa assay OD, 2.5 nM Ab, 10 nM TFPI [8]: 0.026
FXa assay OD, 20 nM Ab, 10 nM TFPI [8]: 0.234
B7: clone 3024 (antibody, V domains shown)
VH: B1 VH with N35S, G49S, E65Q
VL: B1 VL with P27Q, I32S, F99L
